Here are results for 3 molecules from PMC4242493, “Sequence specificity incompletely defines the genome-wide occupancy of Myc”.

The term Kd denotes the equilibrium constant for the complex coming apart.

Series [1] deals with T1, Myc;MaxL (Homo sapiens;Homo sapiens, UniProt P01106-1;P61244 1-439;1-160, |). Kind of series: EMSA; 0.01 nM probe; EMSA: 25 mM HEPES pH 7.6, 100 mM KCl, 1 mM DTT, 0.1 mM EDTA, 0.01% Triton, 30 min at room temperature; 6% polyacrylamide gel in 0.5X Tris/glycine. The following applies: protein: recombinant;recombinant, tags: C-terminal His-tag (pET21a);C-terminal His-tag (pET21a), copies: 1;1. On the technique in general: Mobility shift assays separate free from complexed probe on a gel.

The target in series [2] is MaxL (human? (HeLa cDNA), UniProt P61244 1-160). Kind of series: EMSA; 0.01 nM probe; MaxL homodimer; EMSA: 25 mM HEPES pH 7.6, 100 mM KCl, 1 mM DTT, 0.1 mM EDTA, 0.01% Triton, 30 min at room temperature; 6% polyacrylamide gel in 0.5X Tris/glycine. The following applies: protein: recombinant; tags: C-terminal His-tag (pET21a); chain copies: 2; unlabeled in silver-stained EMSA.

Series [3] deals with Myc;MaxS (human? (HeLa cDNA);human? (HeLa cDNA), UniProt P01106-1;P61244-2 1-439;1-151, |). Kind of series: EMSA; stoichiometric, 125 nM, silver stain; EMSA: 25 mM HEPES pH 7.6, 100 mM KCl, 1 mM DTT, 0.1 mM EDTA, 0.01% Triton, 30 min at room temperature; 6% polyacrylamide gel in 0.5X Tris/glycine. Particulars: protein: recombinant;recombinant; tags: C-terminal His-tag (pET21a);C-terminal His-tag (pET21a); copies: 1;1; label: unlabeled.

For series [4], the target named is T1, Myc;MaxL. The description is as above. The following applies: protein: recombinant;recombinant; tags: C-terminal His-tag (pET21a);C-terminal His-tag (pET21a); copies: 1;1; label: unlabeled.

T1 sequence (P01106 16-454, chain 1 of 2): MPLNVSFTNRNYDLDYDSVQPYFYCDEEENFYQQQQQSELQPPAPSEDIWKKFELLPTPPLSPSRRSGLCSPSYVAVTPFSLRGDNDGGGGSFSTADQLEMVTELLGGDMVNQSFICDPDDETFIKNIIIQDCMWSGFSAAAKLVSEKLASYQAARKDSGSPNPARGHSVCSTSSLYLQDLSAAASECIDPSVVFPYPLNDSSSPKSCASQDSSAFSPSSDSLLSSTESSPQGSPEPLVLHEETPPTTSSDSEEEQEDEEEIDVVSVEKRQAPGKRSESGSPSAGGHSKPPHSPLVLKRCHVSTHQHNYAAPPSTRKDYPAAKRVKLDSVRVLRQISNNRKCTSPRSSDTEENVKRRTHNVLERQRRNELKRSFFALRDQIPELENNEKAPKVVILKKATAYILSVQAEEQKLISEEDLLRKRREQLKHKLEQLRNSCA
T1 sequence (P61244 whole entry, chain 2 of 2): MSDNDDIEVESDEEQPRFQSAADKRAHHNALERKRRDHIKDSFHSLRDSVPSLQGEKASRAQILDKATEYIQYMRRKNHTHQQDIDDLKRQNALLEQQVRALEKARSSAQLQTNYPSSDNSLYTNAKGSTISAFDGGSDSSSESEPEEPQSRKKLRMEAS
MaxL, sequence (P61244 whole entry): as the sequence (P61244 whole entry, chain 2 of 2) above
Myc;MaxS, sequence (P01106 16-454, chain 1 of 2): as the sequence (P01106 16-454, chain 1 of 2) above
Myc;MaxS, sequence (P61244 other isoform, or with tags, fused parts or gaps |, chain 2 of 2): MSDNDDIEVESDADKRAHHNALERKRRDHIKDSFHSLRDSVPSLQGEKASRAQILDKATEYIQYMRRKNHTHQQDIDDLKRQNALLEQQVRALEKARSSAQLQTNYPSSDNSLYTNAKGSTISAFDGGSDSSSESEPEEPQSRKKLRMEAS

B1: ATCTAG probe (26 bp) (dsDNA)
DNA 1: GAGGGATCGGATCTAGGGATCGGAGG
DNA 2: CCTCCGATCCCTAGATCCGATCCCTC
With B1, the Kd in series [1] (label: 32P 5' end-labeled on both strands (Kd)) is 20 nM.

B2: CACGTG probe (26 bp) (dsDNA)
DNA 1: GAGGGATCGGCACGTGGGATCGGAGG
DNA 2: CCTCCGATCCCACGTGCCGATCCCTC
As for B2, the Kd was 0.4 nM in series [2] and 0.1 nM in series [1] (unlabeled in silver-stained EMSA).

B3: GTGGTG probe (26 bp) (dsDNA)
DNA 1: GAGGGATCGGGTGGTGGGATCGGAGG
DNA 2: CCTCCGATCCCACCACCCGATCCCTC
With B3, the binding result in series [3] and in series [4] was “binds” throughout.
